Measurements reported in patent US9803019B2, “Carrier immunoglobulins and uses thereof” (Amgen Inc., priority 2010, dated 2017).
Read-outs that look alike come from different tables or passages of the source. Where no end group is shown, it is not given here.

T1: huIL-17R (Homo sapiens, UniProt Q96F46)
T1 construct: FLAG (the F of FpH); polyHis (the pH of FpH)
T1 sequence (Q96F46 with tags, fused parts or gaps): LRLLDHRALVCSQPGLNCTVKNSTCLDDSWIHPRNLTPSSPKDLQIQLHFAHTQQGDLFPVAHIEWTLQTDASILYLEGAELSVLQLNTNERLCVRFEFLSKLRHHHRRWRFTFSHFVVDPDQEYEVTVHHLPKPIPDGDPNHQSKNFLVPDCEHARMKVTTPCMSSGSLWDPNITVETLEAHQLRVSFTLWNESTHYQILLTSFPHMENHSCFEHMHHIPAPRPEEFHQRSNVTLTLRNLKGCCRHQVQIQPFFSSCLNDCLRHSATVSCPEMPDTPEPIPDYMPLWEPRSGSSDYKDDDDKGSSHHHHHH

T2: IL-17R (Homo sapiens, UniProt Q96F46)
T2 construct: endogenous in cells; host or cells: human foreskin fibroblasts (HFF)
T2 sequence (Q96F46 33-866): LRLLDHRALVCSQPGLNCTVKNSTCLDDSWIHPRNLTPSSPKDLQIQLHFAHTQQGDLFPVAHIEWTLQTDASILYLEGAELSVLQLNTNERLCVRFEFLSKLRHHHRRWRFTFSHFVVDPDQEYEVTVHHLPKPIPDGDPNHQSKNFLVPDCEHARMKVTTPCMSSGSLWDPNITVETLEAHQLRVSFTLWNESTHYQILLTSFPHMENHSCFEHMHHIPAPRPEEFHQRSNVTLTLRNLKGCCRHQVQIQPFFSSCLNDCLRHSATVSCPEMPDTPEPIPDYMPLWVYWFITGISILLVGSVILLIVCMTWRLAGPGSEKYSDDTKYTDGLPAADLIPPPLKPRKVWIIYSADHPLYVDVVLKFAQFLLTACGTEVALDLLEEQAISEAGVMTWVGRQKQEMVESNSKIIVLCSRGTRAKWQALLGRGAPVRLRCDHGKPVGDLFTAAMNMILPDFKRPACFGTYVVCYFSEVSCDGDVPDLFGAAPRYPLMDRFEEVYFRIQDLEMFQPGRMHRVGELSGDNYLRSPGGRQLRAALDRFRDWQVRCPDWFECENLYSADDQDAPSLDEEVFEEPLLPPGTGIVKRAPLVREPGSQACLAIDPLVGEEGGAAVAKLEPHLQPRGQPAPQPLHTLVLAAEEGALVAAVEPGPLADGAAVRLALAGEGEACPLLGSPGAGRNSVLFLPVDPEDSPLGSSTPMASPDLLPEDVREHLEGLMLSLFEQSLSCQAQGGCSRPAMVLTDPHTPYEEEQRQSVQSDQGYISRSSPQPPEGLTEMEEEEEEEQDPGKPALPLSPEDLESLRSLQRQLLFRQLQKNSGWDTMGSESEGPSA


What was measured:
[1] = target: T3, Kv1.3 (Homo sapiens, UniProt P22001); assay: Human whole blood assay: thapsigargin-induced IL-2 and IFN-γ secretion; assay type: cell-based; conditions: for IC50: human whole blood; for Potency Relative to ShK (WB, IL2): ratio of WB IL-2 IC50 to that of ShK(1-35)
T3 construct: endogenous in cells; host or cells: T cells in 50% human whole blood from multiple donors
Method: An ex vivo assay was employed to examine impact of toxin peptide analog Kv1.3 inhibitors on secretion of IL-2 and IFN-γ. […] In brief, 50% human whole blood was stimulated with thapsigargin to induce store depletion, calcium mobilization and cytokine secretion. […] After 48 hours at 37° C. and 5% CO2, conditioned medium was collected and the level of cytokine secretion was determined using a 4-spot electrochemiluminescent immunoassay from MesoScale Discovery. […] Kv1.3 is the major voltage-gated potassium channel present on T cells. Allowing for K^+ efflux, Kv1.3 provides the driving force for continued Ca^2+ influx which is necessary for the sustained elevation in intracellular calcium needed for efficient T cell activation and cytokine secretion. […] Therefore, we employed a bioassay whereby the bioactivity of Kv1.3 inhibitors is assessed by examining their ability to block thapsigargin-induced cytokine secretion from T cells in human whole blood.

[2] = target: T1, huIL-17R; assay: BIAcore solution equilibrium binding assay to huIL-17R (16429 immobilized); conditions: for IL-17R binding capability: 10 nM, 100 nM and 1000 nM antibody incubated with 10 nM IL-17R (FIG. 2A); for IL-17R binding activity: 30 μM antibody with 30 nM IL-17R (FIG. 2B)
Method: Antibody 16429 was immobilized to a CM5 sensor chip, and 10 nM of IL-17R in the absence of antibody was used to establish the 100% binding signal of […] that is free of antibody binding in solution. In FIG. 2A, 10 nM, 100 nM and 1000 nM of indicated antibody samples were incubated with the 10 nM IL-17R to determine antibody binding in solution. In FIG. 2B, 30,000 nM of the antibody samples were incubated with 30 nM IL-17R to determine antibody binding in solution. In FIGS. 2A-B, The decreased binding signal of IL-17R after the antibody incubation indicates the binding of the antibody to IL-17R in solution.
A reference antigen binding protein (e.g., Antibody 16429 for human IL-17R or Antibody 16449 for human TR2) is immobilized to a BIACore® 2000, research grade sensor chip CM5 surface according to manufacturer's instructions (BIACore, Inc., Piscataway, N.J.). Carboxyl groups on the sensor chip surfaces are activated by injecting 60 μL of a mixture containing 0.2 M N-ethyl-N′-(dimethylaminopropyl) carbodiimide (EDC) and 0.05 M N-hydroxysuccinimide (NHS). The reference antigen binding protein is diluted in 10 mM sodium acetate, pH 4.0 and injected over the activated chip surface at 30 μL/min for 6 minutes. Excess reactive groups on the surfaces are deactivated by injecting 60 μL of 1 M ethanolamine. The final immobilized level is typically approximately 6600 resonance units (RU). Soluble target antigen (e.g., 10 nM of soluble human IL-17R or 30 nM of soluble human TR2) in the absence of soluble antigen binding protein (e.g., antibody) is used to establish the 100% binding signal to the fixed reference antigen binding protein (e.g., the positive control antibody). The decreased binding signal of the target antigen after incubation of the test immunoglobulin indicates its level of binding to the target antigen in solution.
The lead candidates were then selected based on lack of binding to the IL-17R extracellular domain as determined by BIAcore analysis. Antibody 16429 is a human antibody that specifically binds to huIL-17R. A solution equilibrium binding assay was developed to assess the binding activity of a set of antibodies to huIL-17R. Antibody 16429 was immobilized to a BIACore® 2000, research grade sensor chip CM5 surface according to manufacturer's instructions (BIACore, Inc., Piscataway, N.J.). Briefly, carboxyl groups on the sensor chip surfaces were activated by injecting 60 μL of a mixture containing 0.2 M N-ethyl-N′-(dimethylaminopropyl) carbodiimide (EDC) and 0.05 M N-hydroxysuccinimide (NHS). Antibody 16429 was diluted in 10 mM sodium acetate, pH 4.0 and injected over the activated chip surface at 30 μL/min for 6 minutes. Excess reactive groups on the surfaces were deactivated by injecting 60 μL of 1 M ethanolamine. The final immobilized level was approximately 6600 resonance units (RU). As represented in FIG. 2A, 10 nM of IL-17R in the absence of soluble antibody was used to establish the 100% binding signal of IL-17R to the fixed 16429 antibody. To determine antibody binding in solution, 10 nM, 100 nM and 1000 nM of the antibody samples were incubated with the 10 nM IL-17R. The decreased binding signal of IL-17R after the antibody incubation indicates the binding of the antibody to IL-17R in solution.

[3] = target: T2, IL-17R; assay: Cell based activity assay: IL-17-induced GRO-α release from human foreskin fibroblasts (sandwich ELISA); conditions: HFF, 5 ng/ml IL-17; 0.1, 1 and 10 μM antibody (FIG. 3)
Method: The conditioned cell medium was then assessed for GRO-α levels using a GRO-α sandwich ELISA.
Interaction of IL-17 with the IL-17R on cells induces the production of various factors, including growth-related oncogene alpha (GRO-α), from these cells. A cell-based characterization assay was developed to measure GRO-α released using sandwich ELISA. In this ELISA, a GRO-α capture antibody is utilized to bind GRO-α, and then a biotinylated GRO-α detection antibody is used to detect the captured protein. Streptavidin conjugated to horseradish peroxidise (HRP) is then added to detect the amount of biotinylated GRO-α detection antibody bound. The amount of HRP bound is measured by evaluation of absorbance at 450 nm. An increase in absorbance at 450 nm is indicative of an increase in the amount of GRO-α produced. In this assay, human foreskin fibroblasts (HFF) are incubated with 5 ng/ml IL-17 and 0.1 μM, 1 μM and 10 μM of antibody samples. The conditioned cell medium is then harvested and processed for assessment of GRO-α levels using a GRO-α sandwich ELISA.

T3 sequence (P22001 whole entry): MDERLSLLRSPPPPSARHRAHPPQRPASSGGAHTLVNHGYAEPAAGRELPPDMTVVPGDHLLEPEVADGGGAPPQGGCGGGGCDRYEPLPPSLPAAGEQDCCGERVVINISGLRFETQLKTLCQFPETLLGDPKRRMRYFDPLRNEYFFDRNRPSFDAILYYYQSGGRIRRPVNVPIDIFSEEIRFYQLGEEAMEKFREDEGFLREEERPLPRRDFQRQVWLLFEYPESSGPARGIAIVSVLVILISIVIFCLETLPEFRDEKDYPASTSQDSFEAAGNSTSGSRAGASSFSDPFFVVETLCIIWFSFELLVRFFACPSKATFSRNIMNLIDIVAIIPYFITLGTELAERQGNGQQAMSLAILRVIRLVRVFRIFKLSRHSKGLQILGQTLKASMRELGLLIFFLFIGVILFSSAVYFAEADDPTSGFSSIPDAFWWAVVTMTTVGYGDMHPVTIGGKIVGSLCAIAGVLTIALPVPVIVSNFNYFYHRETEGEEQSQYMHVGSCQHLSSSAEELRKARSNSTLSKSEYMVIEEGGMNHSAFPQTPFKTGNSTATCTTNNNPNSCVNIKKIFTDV

Row | Molecule | IC50 ([1]; IFNg, read-out: WB (IFNg) IC50) [nM] | IC50 ([1]; IL-2, read-out: WB (IL-2) IC50) [nM] | Potency Relative to ShK (WB, IL2) [1] | IL-17R binding capability [2] | IL-17R binding activity [2] | blocking activity on IL-17-induced GRO-α production [3]
1 | 20 kDa-PEG-ShK: N-terminally 20 kDa PEGylated ShK, SEQ ID NO:380 | 0.84 | 0.38 | – | – | – | –
2 | Bivalent Fc-L10-ShK[1-35] homodimer: IgG1 Fc peptibody, Example 1 of WO2008/088422 A2 (GGGGSGGGGSRSCIDTIPKSRCTAFQCKHSMKYRLSFCRKTCGTC; ends and bridges not checked; also: Fc fusion homodimer, Fc domain not in chain) | 0.32 | 0.386 | 5.76 | – | – | –
3 | Bivalent Fc-L10-ShK[2-35] homodimer: IgG1 Fc peptibody, Example 2 of WO2008/088422 A2 (GGGGSGGGGSSCIDTIPKSRCTAFQCKHSMKYRLSFCRKTCGTC; ends and bridges not checked; also: Fc fusion homodimer, Fc domain not in chain) | 2.29 | 0.585 | 8.73 | – | – | –
4 | 16438 (antibody, V domains shown) VH: QVQLVQSGAEVKKPGASVKVSCKASGYTFTRYGISWVRQAPGQGLEWMGWISTYSGNTNYAQKLQGRVTMTTDTSTSTAYMELRSLRSDDTAVYYCARRQQYFDYWGQGTLVTVSS VL: EIVMTQSPATLSVSPGERATLSCRASQSVSSNLAWFQQKPGQAPRLLIYDASTRATGVPARFSGSGSGTEFTLTISSLQSEDFAVYYCQQYDNWPLTFGGGTKVEIK | – | – | – | substantial reduction in IL-17R binding capability | no significant IL-17R binding activity | no significant blocking activity
5 | 16441 (antibody, V domains shown) VH: QVQLVQSGAEVKKPGASVKVSCKASGYTFTRYGISWVRQAPGQGLEWMGWISTYSGNTNYAQKLQGRVTMTTDTSTSTAYMELRSLRSDDTAVYYCARAQQYFDYWGQGTLVTVSS VL: EIVMTQSPATLSVSPGERATLSCRASQSVSSNLAWFQQKPGQAPRLLIYDASTRATGVPARFSGSGSGTEFTLTISSLQSEDFAVYYCQQYDNWPLTFGGGTKVEIK | – | – | – | substantial reduction in IL-17R binding capability | no significant IL-17R binding activity | no significant blocking activity
6 | 16440 (antibody, V domains shown) VH: QVQLVQSGAEVKKPGASVKVSCKASGYTFTRYGISWVRQAPGQGLEWMGWISTYSGNTNYAQKLQGRVTMTTDTSTSTAYMELRSLRSDDTAVYYCARAQQYFDYWGQGTLVTVSS VL: EIVMTQSPATLSVSPGERATLSCRASQSVSSNLAWFQQKPGQAPRPLIYDASTRATGVPARFSGSGSGTDFTLTISSLQSEDFAVYYCQQYDNWPLTFGGGTKVEIK | – | – | – | substantial reduction in IL-17R binding capability | no significant IL-17R binding activity | no significant blocking activity
7 | 16439 (antibody, V domains shown) VH: QVQLVQSGAEVKKPGASVKVSCKASGYTFTRYGISWVRQAPGQGLEWMGWISTYSGNTNYAQKLQGRVTMTTDTSTSTAYMELRSLRSDDTAVYYCARRQQYFDYWGQGTLVTVSS VL: EIVMTQSPATLSVSPGERATLSCRASQSVSSNLAWFQQKPGQAPRLLIYDASTRATGVPARFSGSGSGTEFTLTISSLQSEDFAVYYCQQYDNAPLTFGGGTKVEIK | – | – | – | substantial reduction in IL-17R binding capability | no significant IL-17R binding activity | no significant blocking activity
